Experimental data taken from paper PMC2175300.

Legend:
Experiment in all cases: fluorescence anisotropy
[1] = target: FOXO3a-DBD K242A (Homo sapiens, UniProt O43524 158-253, K242A)
[2] = target: FOXO3a-DBD K245A (Homo sapiens, UniProt O43524 158-253, K245A)
[3] = target: FOXO3a-DBD RRR/AAA (Homo sapiens, UniProt O43524 158-253, R248A;R249A;R250A)
[4] = target: FOXO3a-DBD 158-240 (Homo sapiens, UniProt O43524 158-240)
[5] = target: FOXO3a-DBD WT (Homo sapiens, UniProt O43524 158-253)
[6] = target: FOXO3a-DBD S253D (Homo sapiens, UniProt O43524 158-253, S253D)
FOXO3a-DBD S253D, sequence (O43524 158-253 S253D): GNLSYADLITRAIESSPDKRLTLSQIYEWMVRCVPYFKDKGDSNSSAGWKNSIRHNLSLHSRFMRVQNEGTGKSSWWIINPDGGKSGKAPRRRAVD

FOXO3a-DBD RRR/AAA, sequence (O43524 158-253 R248A/R249A/R250A): as the sequence (O43524 158-253 S253D) above, with R91A, R92A, R93A, D96S counted along it
FOXO3a-DBD WT, sequence (O43524 158-253): as the sequence (O43524 158-253 S253D) above, with D96S counted along it
FOXO3a-DBD K245A, sequence (O43524 158-253 K245A): as the sequence (O43524 158-253 S253D) above, with K88A, D96S counted along it
FOXO3a-DBD 158-240, sequence (O43524 158-240): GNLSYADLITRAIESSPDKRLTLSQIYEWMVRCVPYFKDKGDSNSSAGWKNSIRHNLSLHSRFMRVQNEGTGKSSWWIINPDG
FOXO3a-DBD K242A, sequence (O43524 158-253 K242A): as the sequence (O43524 158-253 S253D) above, with K85A, D96S counted along it

B1: 26-bp FOXO consensus FA duplex (dsDNA)
DNA 1: CGCATCCTATGTAAACAACTCGAGTC
DNA 2: GACTCGAGTTGTTTACATAGGATGCG
Work on B1 yielded a Kd [1] of 399 ± 25 nM, a Kd [2] of 511 ± 63 nM and a Kd [3] of 1180 ± 168 nM. It also gave a Kd [4] of 1490 ± 197 nM, a Kd [5] of 295 ± 26 nM and a Kd [6] of 549 ± 55 nM.
